# Assay results taken from article PMC9482650, “Quantitative fragmentomics allow affinity mapping of interactomes” (Nature Communications, 2022).
# T1: APBA2_2, Q99767
# T1 sequence (Q99767 654-744, limits assumed, looked up): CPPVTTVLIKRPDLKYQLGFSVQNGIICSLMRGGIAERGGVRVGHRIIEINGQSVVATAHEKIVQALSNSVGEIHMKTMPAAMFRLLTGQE
# T2: FRMPD1, Q5SYB0
# T2 sequence (Q5SYB0 52-145, limits assumed, looked up): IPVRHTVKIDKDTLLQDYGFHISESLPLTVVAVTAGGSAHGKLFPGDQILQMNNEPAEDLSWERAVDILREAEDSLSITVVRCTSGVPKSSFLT
# T3: GRIP1_4, Q9Y3R0
# T3 sequence (Q9Y3R0 467-571, limits assumed, looked up): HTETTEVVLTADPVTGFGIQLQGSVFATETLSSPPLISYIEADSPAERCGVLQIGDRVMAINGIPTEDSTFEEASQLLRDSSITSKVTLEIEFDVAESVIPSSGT
# T4: GRIP1_7, Q9Y3R0
# T4 sequence (Q9Y3R0 999-1096, limits assumed, looked up): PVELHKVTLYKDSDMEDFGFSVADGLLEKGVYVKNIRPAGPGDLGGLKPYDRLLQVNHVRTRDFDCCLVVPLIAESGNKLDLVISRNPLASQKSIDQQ
# T5: LIN7A, O14910
# T5 sequence (O14910 103-200, limits assumed, looked up): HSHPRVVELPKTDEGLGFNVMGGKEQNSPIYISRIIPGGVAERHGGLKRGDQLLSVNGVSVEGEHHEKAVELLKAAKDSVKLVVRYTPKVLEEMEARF
# T6: LIN7B, Q9HAP6
# T6 sequence (Q9HAP6 88-185, limits assumed, looked up): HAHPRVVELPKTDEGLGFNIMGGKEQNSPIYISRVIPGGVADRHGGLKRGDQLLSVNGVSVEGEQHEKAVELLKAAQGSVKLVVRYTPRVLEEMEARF
# T7: PCLO, Q9Y6V0
# T7 sequence (Q9Y6V0 4491-4600, limits assumed, looked up): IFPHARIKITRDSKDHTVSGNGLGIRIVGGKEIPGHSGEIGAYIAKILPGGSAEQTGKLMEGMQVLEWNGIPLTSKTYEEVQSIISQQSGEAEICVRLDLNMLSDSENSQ
# T8: PDZD7_3, Q9H5P4
# T8 sequence (Q9H5P4 857-944, limits assumed, looked up): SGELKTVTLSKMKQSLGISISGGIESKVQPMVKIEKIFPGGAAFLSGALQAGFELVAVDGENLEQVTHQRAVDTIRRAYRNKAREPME
# T9: PTPN13_1, Q12923
# T9 sequence (Q12923 1088-1188, limits assumed, looked up): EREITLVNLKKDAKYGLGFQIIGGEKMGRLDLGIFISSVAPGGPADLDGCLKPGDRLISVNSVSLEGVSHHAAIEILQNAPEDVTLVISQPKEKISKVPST
# T10: TIAM2, Q8IVF5
# T10 sequence (Q8IVF5 885-986, limits assumed, looked up): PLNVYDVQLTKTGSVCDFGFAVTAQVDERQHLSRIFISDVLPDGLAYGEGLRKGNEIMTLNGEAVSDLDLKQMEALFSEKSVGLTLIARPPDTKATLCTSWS
# B1: PTPRZ1, P23471 (peptide)
# chain: NIAESLESLV
# B2: ZSCAN30, Q86W11 (peptide)
# chain: MQHQRTHTRV
# B3: SCN8A, Q9UQD0 (peptide)
# chain: RQKEVRESKC
# B4: HPV16-E6_-2P, P03126 (peptide)
# chain: SSRTRRETQL
# B5: TRPV6, Q9H1D0 (peptide)
# chain: EDGESWEYQI
# Experiments:
# Assay in all cases: holdup assay
# Parameters in all cases: key: below the threshold = too weak to quantify, mostly under pKd 3.1 to 4
# [1] = target: T1, APBA2_2, Q99767
# [2] = target: DLG2_3, Q15700
# [3] = target: DLG4_2, P78352
# [4] = target: T2, FRMPD1, Q5SYB0
# [5] = target: FRMPD3, Q5JV73
# [6] = target: FRMPD4, Q14CM0
# [7] = target: GRID2IP_1, A4D2P6
# [8] = target: GRID2IP_2, A4D2P6
# [9] = target: T3, GRIP1_4, Q9Y3R0
# [10] = target: T4, GRIP1_7, Q9Y3R0
# [11] = target: IL16_1, Q14005
# [12] = target: Inadl_5, Q8NI35
# [13] = target: T5, LIN7A, O14910
# [14] = target: T6, LIN7B, Q9HAP6
# [15] = target: LNX1_1, Q8TBB1
# [16] = target: LNX1_3, Q8TBB1
# [17] = target: MAGI2_3, Q86UL8
# [18] = target: MAGI2_4, Q86UL8
# [19] = target: MAGI2_6, Q86UL8
# [20] = target: MAST1, Q9Y2H9
# [21] = target: T7, PCLO, Q9Y6V0
# [22] = target: T8, PDZD7_3, Q9H5P4
# [23] = target: PDZRN4_1, Q6ZMN7
# [24] = target: T9, PTPN13_1, Q12923
# [25] = target: SCRIB_1, Q14160
# [26] = target: T10, TIAM2, Q8IVF5
# [27] = target: TJP1_2, Q07157
# [28] = plain residues with an end cap or a label only (N-terminal biotin on a linker: ado-ado)
# [29] = modified: phospho on T at position -2 from the C-terminal residue
# Inadl_5, Q8NI35, sequence (Q8NI35 673-780): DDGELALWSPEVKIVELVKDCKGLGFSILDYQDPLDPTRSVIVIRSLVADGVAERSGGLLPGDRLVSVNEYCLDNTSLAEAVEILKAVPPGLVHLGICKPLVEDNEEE
# SCRIB_1, Q14160, sequence (Q14160 718-814): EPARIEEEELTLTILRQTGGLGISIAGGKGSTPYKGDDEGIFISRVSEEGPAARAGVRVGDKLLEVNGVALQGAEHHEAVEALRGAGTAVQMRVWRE
# DLG4_2, P78352, sequence (P78352 155-259): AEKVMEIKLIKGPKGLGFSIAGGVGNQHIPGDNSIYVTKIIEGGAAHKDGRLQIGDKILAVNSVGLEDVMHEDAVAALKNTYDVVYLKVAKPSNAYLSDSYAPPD
# MAST1, Q9Y2H9, sequence (Q9Y2H9 962-1065): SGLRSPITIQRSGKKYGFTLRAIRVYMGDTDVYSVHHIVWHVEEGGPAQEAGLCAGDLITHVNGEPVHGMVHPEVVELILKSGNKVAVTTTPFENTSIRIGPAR
# MAGI2_6, Q86UL8, sequence (Q86UL8 1141-1229): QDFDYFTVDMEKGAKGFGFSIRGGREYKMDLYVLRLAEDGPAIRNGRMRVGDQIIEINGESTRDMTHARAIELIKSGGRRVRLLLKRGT
# IL16_1, Q14005, sequence (Q14005 210-306): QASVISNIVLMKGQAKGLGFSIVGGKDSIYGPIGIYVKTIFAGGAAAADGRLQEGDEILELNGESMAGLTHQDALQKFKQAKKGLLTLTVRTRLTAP
# TJP1_2, Q07157, sequence (Q07157 181-274): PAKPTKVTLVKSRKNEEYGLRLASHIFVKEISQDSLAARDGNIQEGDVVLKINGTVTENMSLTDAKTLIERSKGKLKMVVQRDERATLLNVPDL
# GRID2IP_1, A4D2P6, sequence (A4D2P6 1-87): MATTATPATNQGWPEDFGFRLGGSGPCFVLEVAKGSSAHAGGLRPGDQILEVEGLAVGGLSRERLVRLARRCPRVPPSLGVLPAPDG
# PDZRN4_1, Q6ZMN7, sequence (Q6ZMN7 213-318): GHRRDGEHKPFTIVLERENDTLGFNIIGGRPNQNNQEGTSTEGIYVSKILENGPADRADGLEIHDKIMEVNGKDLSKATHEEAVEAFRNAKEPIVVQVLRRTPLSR
# LNX1_1, Q8TBB1, sequence (Q8TBB1 261-371): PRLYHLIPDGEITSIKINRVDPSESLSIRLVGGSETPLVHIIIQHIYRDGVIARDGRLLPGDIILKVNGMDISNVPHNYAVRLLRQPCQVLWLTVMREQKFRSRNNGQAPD
# MAGI2_3, Q86UL8, sequence (Q86UL8 600-682): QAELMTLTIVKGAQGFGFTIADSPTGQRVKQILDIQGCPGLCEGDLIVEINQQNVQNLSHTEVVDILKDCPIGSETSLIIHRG
# GRID2IP_2, A4D2P6, sequence (A4D2P6 272-370): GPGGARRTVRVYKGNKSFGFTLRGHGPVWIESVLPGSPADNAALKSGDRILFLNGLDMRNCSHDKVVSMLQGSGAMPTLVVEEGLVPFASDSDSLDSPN
# FRMPD4, Q14CM0, sequence (Q14CM0 67-160): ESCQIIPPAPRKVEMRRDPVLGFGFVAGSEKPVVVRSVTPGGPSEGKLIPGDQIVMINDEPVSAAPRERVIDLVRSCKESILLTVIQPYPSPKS
# MAGI2_4, Q86UL8, sequence (Q86UL8 772-865): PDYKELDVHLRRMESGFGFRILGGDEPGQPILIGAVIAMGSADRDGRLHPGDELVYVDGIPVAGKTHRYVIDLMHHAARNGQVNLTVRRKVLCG
# FRMPD3, Q5JV73, sequence (Q5JV73 12-100): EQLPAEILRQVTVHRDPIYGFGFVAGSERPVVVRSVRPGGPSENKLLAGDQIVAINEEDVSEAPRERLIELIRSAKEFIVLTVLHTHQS
# LNX1_3, Q8TBB1, sequence (Q8TBB1 500-596): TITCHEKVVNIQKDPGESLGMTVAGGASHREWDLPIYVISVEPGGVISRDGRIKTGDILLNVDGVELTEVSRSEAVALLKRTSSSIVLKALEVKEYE
binder,measurement,setting,value
B1,pKd,[1]; [28],below the threshold
same,pKd,[2]; [28],below the threshold
same,pKd,[3]; [28],5.09
same,pKd,[4]; [28],below the threshold
same,pKd,[5]; [28],below the threshold
same,pKd,[6]; [28],below the threshold
same,pKd,[7]; [28],below the threshold
same,pKd,[8]; [28],below the threshold
same,pKd,[9]; [28],below the threshold
same,pKd,[10]; [28],below the threshold
same,pKd,[11]; [28],4.6
same,pKd,[12]; [28],below the threshold
same,pKd,[13]; [28],4.04
same,pKd,[14]; [28],below the threshold
same,pKd,[15]; [28],4.36
same,pKd,[16]; [28],below the threshold
same,pKd,[17]; [28],4.44
same,pKd,[18]; [28],4.45
same,pKd,[19]; [28],3.96
same,pKd,[20]; [28],below the threshold
same,pKd,[21]; [28],below the threshold
same,pKd,[22]; [28],4.7
same,pKd,[23]; [28],3.99
same,pKd,[24]; [28],below the threshold
same,pKd,[25]; [28],3.87
same,pKd,[26]; [28],below the threshold
same,pKd,[27]; [28],below the threshold
B2,pKd,[1]; [28],below the threshold
same,pKd,[2]; [28],4.67
same,pKd,[3]; [28],4.95
same,pKd,[4]; [28],below the threshold
same,pKd,[5]; [28],below the threshold
same,pKd,[6]; [28],below the threshold
same,pKd,[7]; [28],3.57
same,pKd,[8]; [28],3.77
same,pKd,[9]; [28],below the threshold
same,pKd,[10]; [28],below the threshold
same,pKd,[11]; [28],below the threshold
same,pKd,[12]; [28],below the threshold
same,pKd,[13]; [28],below the threshold
same,pKd,[14]; [28],below the threshold
same,pKd,[15]; [28],3.49
same,pKd,[16]; [28],3.53
same,pKd,[17]; [28],below the threshold
same,pKd,[18]; [28],3.49
same,pKd,[19]; [28],below the threshold
same,pKd,[20]; [28],3.54
same,pKd,[21]; [28],below the threshold
same,pKd,[22]; [28],4.37
same,pKd,[23]; [28],below the threshold
same,pKd,[24]; [28],below the threshold
same,pKd,[25]; [28],3.68
same,pKd,[26]; [28],3.89
same,pKd,[27]; [28],below the threshold
B3,pKd,[1]; [28],below the threshold
same,pKd,[2]; [28],4.07
same,pKd,[3]; [28],3.52
same,pKd,[4]; [28],below the threshold
same,pKd,[5]; [28],below the threshold
same,pKd,[6]; [28],below the threshold
same,pKd,[7]; [28],below the threshold
same,pKd,[8]; [28],3.69
same,pKd,[9]; [28],below the threshold
same,pKd,[10]; [28],below the threshold
same,pKd,[11]; [28],3.7
same,pKd,[12]; [28],below the threshold
same,pKd,[13]; [28],below the threshold
same,pKd,[14]; [28],3.78
same,pKd,[15]; [28],below the threshold
same,pKd,[16]; [28],below the threshold
same,pKd,[17]; [28],3.51
same,pKd,[18]; [28],below the threshold
same,pKd,[19]; [28],below the threshold
same,pKd,[20]; [28],4.34
same,pKd,[21]; [28],below the threshold
same,pKd,[22]; [28],3.85
same,pKd,[23]; [28],below the threshold
same,pKd,[24]; [28],below the threshold
same,pKd,[25]; [28],4.53
same,pKd,[26]; [28],4.02
same,pKd,[27]; [28],below the threshold
B4,pKd,[1]; [29],below the threshold
same,pKd,[2]; [29],below the threshold
same,pKd,[3]; [29],below the threshold
same,pKd,[4]; [29],below the threshold
same,pKd,[5]; [29],below the threshold
same,pKd,[6]; [29],3.88
same,pKd,[7]; [29],below the threshold
same,pKd,[8]; [29],below the threshold
same,pKd,[9]; [29],below the threshold
same,pKd,[10]; [29],below the threshold
same,pKd,[11]; [29],below the threshold
same,pKd,[12]; [29],below the threshold
same,pKd,[13]; [29],below the threshold
same,pKd,[14]; [29],below the threshold
same,pKd,[15]; [29],below the threshold
same,pKd,[16]; [29],below the threshold
same,pKd,[17]; [29],below the threshold
same,pKd,[18]; [29],below the threshold
same,pKd,[19]; [29],below the threshold
same,pKd,[20]; [29],below the threshold
same,pKd,[21]; [29],below the threshold
same,pKd,[22]; [29],below the threshold
same,pKd,[23]; [29],below the threshold
same,pKd,[24]; [29],below the threshold
same,pKd,[25]; [29],below the threshold
same,pKd,[26]; [29],below the threshold
same,pKd,[27]; [29],below the threshold
B5,pKd,[1]; [28],below the threshold
same,pKd,[2]; [28],3.48
same,pKd,[3]; [28],below the threshold
same,pKd,[4]; [28],below the threshold
same,pKd,[5]; [28],below the threshold
same,pKd,[6]; [28],3.73
same,pKd,[7]; [28],below the threshold
same,pKd,[8]; [28],below the threshold
same,pKd,[9]; [28],below the threshold
same,pKd,[10]; [28],below the threshold
same,pKd,[11]; [28],below the threshold
same,pKd,[12]; [28],below the threshold
same,pKd,[13]; [28],below the threshold
same,pKd,[14]; [28],3.59
same,pKd,[15]; [28],below the threshold
same,pKd,[16]; [28],3.52
same,pKd,[17]; [28],below the threshold
same,pKd,[18]; [28],below the threshold
same,pKd,[19]; [28],3.55
same,pKd,[20]; [28],4.28
same,pKd,[21]; [28],below the threshold
same,pKd,[22]; [28],below the threshold
same,pKd,[23]; [28],below the threshold
same,pKd,[24]; [28],below the threshold
same,pKd,[25]; [28],below the threshold
same,pKd,[26]; [28],3.95
same,pKd,[27]; [28],3.56
